± gives the uncertainty stated by the source.
B1: Zinc finger homeobox protein 4, residues 2562 to 2617; numbered along this chain, Q86UP3 (parent)
chain: RLRTTITPEQLEILYEKYLLDSNPTRKMLDHIAREVGLKKRVVQVWFQNTRARERK

Variants of: B1
Experiment: abundance fitness (aPCA) (normalised: wild type 0, dead -1); higher = more abundant; growth selection in yeast, the domain comes from the species named
Conditions: Homo sapiens

First: RLRTTITPEQLEILYEKYLLDSNPTSKMLDHIAREVGLKKRVVQVWFQNTRARERK [R26S]
Second: RLRTTITPEQLEILYEKYLLDSNPTTKMLDHIAREVGLKKRVVQVWFQNTRARERK [R26T]
The abundance fitness of the first is lower: 0.142 ± 0.084 for the first, 0.52 ± 0.12 for the second.

RLRTTITPEQLEILYEKYLLDSNPTVKMLDHIAREVGLKKRVVQVWFQNTRARERK [R26V] and RLRTTITPEQLEILYEKYLLDSNPTWKMLDHIAREVGLKKRVVQVWFQNTRARERK [R26W] are within error of each other in abundance fitness: 0.223 ± 0.11 for the first, 0.237 ± 0.1 for the second.

First: RLRTTITPEQLEILYEKYLLDSNPTYKMLDHIAREVGLKKRVVQVWFQNTRARERK [R26Y]
Second: RLRTTITPEQLEILYEKYLLDSNPTRAMLDHIAREVGLKKRVVQVWFQNTRARERK [K27A]
The abundance fitness of the first is higher: 0.867 ± 0.26 for the first, 0.169 ± 0.07 for the second.

First: RLRTTITPEQLEILYEKYLLDSNPTRCMLDHIAREVGLKKRVVQVWFQNTRARERK [K27C]
Second: RLRTTITPEQLEILYEKYLLDSNPTRDMLDHIAREVGLKKRVVQVWFQNTRARERK [K27D]
The abundance fitness of the first is lower: -0.096 ± 0.11 for the first, 0.478 ± 0.1 for the second.

Going from RLRTTITPEQLEILYEKYLLDSNPTREMLDHIAREVGLKKRVVQVWFQNTRARERK [K27E] to RLRTTITPEQLEILYEKYLLDSNPTRFMLDHIAREVGLKKRVVQVWFQNTRARERK [K27F], the abundance fitness falls from 0.147 ± 0.11 to -0.265 ± 0.073.

RLRTTITPEQLEILYEKYLLDSNPTRGMLDHIAREVGLKKRVVQVWFQNTRARERK [K27G] and RLRTTITPEQLEILYEKYLLDSNPTRHMLDHIAREVGLKKRVVQVWFQNTRARERK [K27H] are within error of each other in abundance fitness: 0.074 ± 0.069 for the first, 0.083 ± 0.12 for the second.

First: RLRTTITPEQLEILYEKYLLDSNPTRIMLDHIAREVGLKKRVVQVWFQNTRARERK [K27I]
Second: RLRTTITPEQLEILYEKYLLDSNPTRLMLDHIAREVGLKKRVVQVWFQNTRARERK [K27L]
The abundance fitness of the first is lower: -0.245 ± 0.16 for the first, -0.019 ± 0.053 for the second.

RLRTTITPEQLEILYEKYLLDSNPTRMMLDHIAREVGLKKRVVQVWFQNTRARERK [K27M] and RLRTTITPEQLEILYEKYLLDSNPTRNMLDHIAREVGLKKRVVQVWFQNTRARERK [K27N] are within error of each other in abundance fitness: -0.206 ± 0.14 for the first, -0.112 ± 0.12 for the second.

RLRTTITPEQLEILYEKYLLDSNPTRPMLDHIAREVGLKKRVVQVWFQNTRARERK [K27P] and RLRTTITPEQLEILYEKYLLDSNPTRQMLDHIAREVGLKKRVVQVWFQNTRARERK [K27Q] are within error of each other in abundance fitness: 0.128 ± 0.1 for the first, 0.082 ± 0.092 for the second.

First: RLRTTITPEQLEILYEKYLLDSNPTRRMLDHIAREVGLKKRVVQVWFQNTRARERK [K27R]
Second: RLRTTITPEQLEILYEKYLLDSNPTRSMLDHIAREVGLKKRVVQVWFQNTRARERK [K27S]
The abundance fitness of the first is lower: -0.475 ± 0.062 for the first, 0.074 ± 0.08 for the second.

Going from RLRTTITPEQLEILYEKYLLDSNPTRTMLDHIAREVGLKKRVVQVWFQNTRARERK [K27T] to RLRTTITPEQLEILYEKYLLDSNPTRVMLDHIAREVGLKKRVVQVWFQNTRARERK [K27V], the abundance fitness rises from -0.147 ± 0.087 to 0.099 ± 0.086.

Compared with RLRTTITPEQLEILYEKYLLDSNPTRWMLDHIAREVGLKKRVVQVWFQNTRARERK [K27W], RLRTTITPEQLEILYEKYLLDSNPTRYMLDHIAREVGLKKRVVQVWFQNTRARERK [K27Y] is higher in abundance fitness: -0.302 ± 0.081 for the first, -0.142 ± 0.065 for the second.

Compared with RLRTTITPEQLEILYEKYLLDSNPTRKCLDHIAREVGLKKRVVQVWFQNTRARERK [M28C], RLRTTITPEQLEILYEKYLLDSNPTRKDLDHIAREVGLKKRVVQVWFQNTRARERK [M28D] is higher in abundance fitness: -0.067 ± 0.11 for the first, 0.242 ± 0.091 for the second.

Compared with RLRTTITPEQLEILYEKYLLDSNPTRKELDHIAREVGLKKRVVQVWFQNTRARERK [M28E], RLRTTITPEQLEILYEKYLLDSNPTRKFLDHIAREVGLKKRVVQVWFQNTRARERK [M28F] is lower in abundance fitness: -0.003 ± 0.099 for the first, -0.591 ± 0.1 for the second.

Compared with RLRTTITPEQLEILYEKYLLDSNPTRKGLDHIAREVGLKKRVVQVWFQNTRARERK [M28G], RLRTTITPEQLEILYEKYLLDSNPTRKHLDHIAREVGLKKRVVQVWFQNTRARERK [M28H] is lower in abundance fitness: -0.108 ± 0.055 for the first, -0.305 ± 0.096 for the second.

First: RLRTTITPEQLEILYEKYLLDSNPTRKILDHIAREVGLKKRVVQVWFQNTRARERK [M28I]
Second: RLRTTITPEQLEILYEKYLLDSNPTRKKLDHIAREVGLKKRVVQVWFQNTRARERK [M28K]
The abundance fitness of the first is higher: -0.101 ± 0.15 for the first, -0.582 ± 0.17 for the second.

Compared with RLRTTITPEQLEILYEKYLLDSNPTRKLLDHIAREVGLKKRVVQVWFQNTRARERK [M28L], RLRTTITPEQLEILYEKYLLDSNPTRKNLDHIAREVGLKKRVVQVWFQNTRARERK [M28N] is lower in abundance fitness: -0.102 ± 0.064 for the first, -0.409 ± 0.12 for the second.

Going from RLRTTITPEQLEILYEKYLLDSNPTRKPLDHIAREVGLKKRVVQVWFQNTRARERK [M28P] to RLRTTITPEQLEILYEKYLLDSNPTRKQLDHIAREVGLKKRVVQVWFQNTRARERK [M28Q], the abundance fitness rises from -1.06 ± 0.23 to -0.067 ± 0.059.

First: RLRTTITPEQLEILYEKYLLDSNPTRKRLDHIAREVGLKKRVVQVWFQNTRARERK [M28R]
Second: RLRTTITPEQLEILYEKYLLDSNPTRKSLDHIAREVGLKKRVVQVWFQNTRARERK [M28S]
The abundance fitness of the first is lower: -0.297 ± 0.074 for the first, -0.152 ± 0.053 for the second.

RLRTTITPEQLEILYEKYLLDSNPTRKTLDHIAREVGLKKRVVQVWFQNTRARERK [M28T] and RLRTTITPEQLEILYEKYLLDSNPTRKVLDHIAREVGLKKRVVQVWFQNTRARERK [M28V] are within error of each other in abundance fitness: -0.003 ± 0.066 for the first, -0.119 ± 0.074 for the second.

RLRTTITPEQLEILYEKYLLDSNPTRKWLDHIAREVGLKKRVVQVWFQNTRARERK [M28W] and RLRTTITPEQLEILYEKYLLDSNPTRKYLDHIAREVGLKKRVVQVWFQNTRARERK [M28Y] are within error of each other in abundance fitness: -0.577 ± 0.096 for the first, -0.406 ± 0.099 for the second.

First: RLRTTITPEQLEILYEKYLLDSNPTRKMDDHIAREVGLKKRVVQVWFQNTRARERK [L29D]
Second: RLRTTITPEQLEILYEKYLLDSNPTRKMEDHIAREVGLKKRVVQVWFQNTRARERK [L29E]
The abundance fitness of the first is lower: -0.721 ± 0.17 for the first, 0.155 ± 0.082 for the second.

First: RLRTTITPEQLEILYEKYLLDSNPTRKMFDHIAREVGLKKRVVQVWFQNTRARERK [L29F]
Second: RLRTTITPEQLEILYEKYLLDSNPTRKMGDHIAREVGLKKRVVQVWFQNTRARERK [L29G]
The abundance fitness of the first is higher: -0.049 ± 0.07 for the first, -0.94 ± 0.11 for the second.

For RLRTTITPEQLEILYEKYLLDSNPTRKMHDHIAREVGLKKRVVQVWFQNTRARERK [L29H], the abundance fitness was -0.95 ± 0.29.

Reference: the Human Domainome abundance scans (Beltran et al. 2025)
